Biological target: cynomolgus monkey Aβ42 (cynomolgus monkey, UniProt P53601 672-713)
Assay: cell-based or functional assay

Chain of cynomolgus monkey Aβ42 (P53601 672-713 limits assumed): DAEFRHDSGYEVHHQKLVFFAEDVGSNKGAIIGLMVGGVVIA

B1: MEDI1814 (antibody, V domains shown)
VH: EVQLLESGGGLVQPGGSLRLSCAASMGNFNYQTMWWVRQAPGKGLEWVSVIGKTNENIAYADSVKGRFTISRDNSKNTLYLQMNSLRAEDTAVYYCAREWMDHSRPYYYYGMDVWGQGTLVTVSS
VL: SYELTQPPSVSVSPGQTASITCSGHNLEDKFASWYQQKPGQSPVLVIYRDDKRPSGIPERFSASNSGHTATLTISGTQAMDEADYYCSSQDTVTRVFGGGTKLTVL
increase in total CSF Aβ42, 14 weekly doses, cynomolgus monkeys: ≤ 7.7 fold
increase in total plasma Aβ42 against control, 14 weekly doses (10 or 100 mg/kg IV, 75 mg/kg SC), cynomolgus monkeys: ≤ 2060 fold

From patent US20230287092A1 (AstraZeneca / MedImmune, published 2023)
